Values quoted from earlier work, collected in paper PMC3212873.
Several values for one entry are separate records, joined by “and”; a condition that tells them apart may be missing. Identical values can stand only once.

Legend:
Cys32 [1] = target: T1, Cys32 (UniProt position 33, FWAEWCGPCKM); assay: fluorescence; conditions: reduced Trx-(SH)2, no protein ligand
Cys32 [2] = target: T1, Cys32; assay: UV-vis; conditions: reduced Trx-(SH)2, no protein ligand
Cys35 [3] = target: T2, Cys35 (UniProt position 36, EWCGPCKMIAP); assay: UV-vis; conditions: reduced Trx-(SH)2, no protein ligand
Cys32 [4] = target: T1, Cys32; assay: NMR; conditions: reduced Trx-(SH)2, no protein ligand
Cys32 [5] = target: T1, Cys32; assay: chemical modification; conditions: reduced Trx-(SH)2, no protein ligand
Cys35 [6] = target: T2, Cys35; assay: chemical modification; conditions: reduced Trx-(SH)2, no protein ligand
Cys32 [7] = target: T1, Cys32; assay: Raman; conditions: reduced Trx-(SH)2, no protein ligand
Cys35 [8] = target: T2, Cys35; assay: Raman; conditions: reduced Trx-(SH)2, no protein ligand
Cys32 [9] = target: Cys32 (UniProt position 33, FWAEWCPYCKM); conditions: reduced variant

Substance	pKa (Cys32 [1])	pKa (Cys32 [2])	pKa (Cys35 [3])	pKa (Cys32 [4])	pKa (Cys32 [5])	pKa (Cys35 [6])	pKa (Cys32 [7])	pKa (Cys35 [8])	pKa (Cys32 [9])
Thioredoxin 1 (EcTrx) (Escherichia coli)	6.28	9-10	9-10	7.4 and 7.0-7.1 and 7.5 or 9.2	6.7	9.0	7.1	7.9	
Thioredoxin 1, glutaredoxin-like active-site variant (Grx-like EcTrx, CPYC) (Escherichia coli; G33P;P34Y)									5.9
